B1: RgDAAO (Rhodotorula toruloides) (protein)
chain: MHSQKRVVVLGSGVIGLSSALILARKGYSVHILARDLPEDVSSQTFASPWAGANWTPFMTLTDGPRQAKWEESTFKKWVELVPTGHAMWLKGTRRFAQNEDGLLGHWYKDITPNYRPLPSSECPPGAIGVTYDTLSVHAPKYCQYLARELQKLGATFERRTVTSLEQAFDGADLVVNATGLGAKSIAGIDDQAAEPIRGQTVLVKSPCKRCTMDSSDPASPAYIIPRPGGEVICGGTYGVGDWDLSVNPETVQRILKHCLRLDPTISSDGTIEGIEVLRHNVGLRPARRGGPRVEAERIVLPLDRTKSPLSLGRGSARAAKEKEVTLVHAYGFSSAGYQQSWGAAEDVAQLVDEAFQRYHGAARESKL
notes: synthetic gene, N-terminal His6 tag, expressed in E. coli, Ni-NTA purified

Columns and labels:
TtAT = target: T1, TtAT (Thermus thermophilus, UniProt Q75WK2); test: PLP to PMP conversion, absorbance decrease at […] nm; assay type: biochemical; conditions: 50 mM HEPES-NaOH pH 8.0, 0.1 M KCl, 25 °C, 20 μM enzyme, no amine acceptor; racemate used as amine donor
T1 construct: gene TthHB5018_10190; C-terminal His6 tag, amplified from genomic DNA, plasmid pET20b-ttGlnAT, expressed in E. coli BL21(DE3), Ni-NTA purified

purified protein [1] = substrate: N[C@H](Cc1ccc2ccccc2c1)C(=O)O; test: purified protein; conditions: 75 mM phosphate pH 8.5, 1 mM o-dianisidine, 1 U HRP, 25 °C, 11.9 nM enzyme
purified protein [2] = substrate: NC(Cc1ccc(-c2ccccn2)nc1)C(=O)O; test: purified protein; assay type: biochemical, Rhodotorula toruloides; conditions: 75 mM phosphate pH 8.5, 1 mM o-dianisidine, 1 U HRP, 25 °C, 119 nM enzyme, racemate used, value calibrated accordingly
purified protein [3] = substrate: NC(Cc1cnc2c(O)cccc2c1)C(=O)O; test: purified protein; assay type: biochemical, Rhodotorula toruloides; conditions: 75 mM phosphate pH 8.5, 1 mM o-dianisidine, 1 U HRP, 25 °C, 119 nM enzyme, racemate used, value calibrated accordingly

T1 sequence (Q75WK2 entry or part of it): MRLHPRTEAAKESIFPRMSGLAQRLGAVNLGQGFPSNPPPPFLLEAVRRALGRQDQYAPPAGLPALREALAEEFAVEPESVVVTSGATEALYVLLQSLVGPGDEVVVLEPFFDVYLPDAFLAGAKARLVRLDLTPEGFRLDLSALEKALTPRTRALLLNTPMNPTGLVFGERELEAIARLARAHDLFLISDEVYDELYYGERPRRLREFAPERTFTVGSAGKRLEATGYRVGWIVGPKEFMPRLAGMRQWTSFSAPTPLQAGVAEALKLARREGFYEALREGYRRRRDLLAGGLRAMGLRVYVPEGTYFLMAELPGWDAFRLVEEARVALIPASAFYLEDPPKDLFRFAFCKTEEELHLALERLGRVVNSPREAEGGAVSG

Molecule	PLP to PMP conversion, absorbance decrease at 430 nm (TtAT)	Km (purified protein [1]) [µM]	kcat (purified protein [1]) [s⁻¹]	kcat/Km (purified protein [1]) [M⁻¹ s⁻¹]	Km (purified protein [2]) [µM]	kcat (purified protein [2]) [s⁻¹]	kcat/Km (purified protein [2]) [M⁻¹ s⁻¹]	Km (purified protein [3]) [µM]	kcat (purified protein [3]) [s⁻¹]	kcat/Km (purified protein [3]) [M⁻¹ s⁻¹]
NC(Cc1cnc2c(O)cccc2c1)C(=O)O (racemic) [HQA, L-HQA]	This result indicates that TtAT recognizes BPA and HQA as substrates	–	–	–	–	–	–	–	–	–
NC(Cc1ccc(-c2ccccn2)nc1)C(=O)O (racemic) [BPA, L-BPA]	This result indicates that TtAT recognizes BPA and HQA as substrates	–	–	–	–	–	–	–	–	–
B1	–	52 ± 8.7	28.5	550000	87 ± 10	7.47 ± 0.333	86700	43 ± 9.4	2.067 ± 0.00667	48300

Reference: PMC7956486, “Conversion of Racemic Unnatural Amino Acids to Optically Pure Forms by a Coupled Enzymatic Reaction” (Molecules, 2021)
